Results taken from a protein production outcome set (Wang et al. 2014).

assay: label from the status in PepcDB records
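Note: failed if final PepcDB status was selected cloned or expressed and not failed if soluble or beyond.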

With “MPQFASKAEEKNYYERQASLAEFLTWYHQQELPEYEKPSLTVDMVLLCYNKEADQLKVLLIQRKGHPFRNSWALPGGFVNRNESTEDSVLRETKEETGVVISQENIEQLHSFSRPDRDPRGWVVTVSYLAFIGEEPLIAGDDAKEVHWFNLERHGQHITLSHEDVEITLDLKTAASLGKDTLAFDHSEIIIKAFNRVVDKMEHEPQVLQVLGKDFTITEARKVFAKFLGVDYRSIDHSNFKKAMTQYFEELGERPVGIGRPSKIYQLKTTTGF” as the sequence, how does the protein production read?
Its protein production is “not failed”.

For “MPQHDKSRLVRIDTGPMINPVAGKPSRPIAGDASFRTVTAFEGGQGKVESGVWESTSGSFQSNTTGYIEYCHIIEGEARLVDPDGTVHAVKAGDAFIMPEGYTGRWEVDRHVKKIYFVTHLA”, which protein production is on record?
The protein production was “not failed”.

With “MPQPKKDKPDTPLRSDAQRNRERILAVATEELTHCANAPLSAIAKKAGVGQGTFYRNFPNREALVLEIYRYGMQQVAEAAPEMLATGEPDLALRQWMDRLAEFAMTKAGLADAIRLVTSAPGAPEKPRPTPLEDAAELLLRANHEAGTIRPGVTGDDFFLVLGGLWLIDPGENWQPRVTRFLDLVMDGLRAGAPGR” as the sequence, how does the protein production read?
The protein production was “not failed”.

Which protein production does the source give for “MPQSSRYSDEHVEQLLSEMVNVLEKHHAPTDLALMVLGNMVTNLINTSIAPAQRQILARSFAEALQASIKKADKAHLEHHHHHH” here?
Its protein production is “failed”.

Which protein production does the source give for “MPQVALFGAVGAIGQSIARTLRSQGQPYRVVGRSQSSLLKAYGADPLAEPVTWDPDQPASVEAAAAGIDTLIYLVGVDYWRFELHPQLMRQTLDGAIAAGVRRILLIGTVYPYGMARSNPVAEQHPRQPNSFKGRMRKAQEDLLWKAHADGKIQATVLRLPDFYGPGVDKSLLHGAFQAAVQGGTANLVGPLDRPHEFVFVPDVGPVVCRLIQQPEAFGKTWHLGGAGVTSQRELLELIRQHGGARFKQRVIGKPLLRLLGLFDPLLREMVEMHYLISSPLILDDSALQALIGPIAKTSYTEGVRQTLAASAGAPQNVKR” here?
Its protein production is “failed”.

Which protein production does the source give for “MPRALPRLPRPLLAVLSLSLTLGIAQADTAPLFSADGYRTTHYRSPTPQQVEGGQVVDTATLQSLLGQTPRPVLIDVYRRQWLQGRFIEDQPHSNLPGSLWLANTGDGELSPAWQDYFVRNLQKATAGHLDQPLVFYCRSDCWLSWNAVKRAKALGYNNLYWYRDGLDAWQQANLPLQPAQPVPFP” here?
Its protein production is “failed”.

With “MPRAPRCRAVRSLLRSHYREVLPLATFVRRLGPQGWRLVQRGDPAAFRALVAQCLVCVPWDARPPPAAPSFRQVSCLKELVARVLQRLCERGAKNVLAFGFALLDGARGGPPEAFTTSVRSYLPNTVTDALRGSGAWGLLLRRVGDDVLVHLLARCALFVLVAPSCAYQVCGPPLYQLGAATQARPPPHASGPRRRLGCE” as the sequence, how does the protein production read?
Its protein production is “failed”.

With “MPRITQEISYNCDYGDNTFNLAIDIGGTLAKVVFSPIHSNRLMFYTIETEKIDKFMELLHSIIKEHNNGCYRMTHIIATGGGAFKFYDLLYENFPQIKGISRFEEMEGLIHGLDFFIHEIPDEVFTYNDQDGERIIPTSSGTMDSKAIYPYLLVNIGSGVSILKVTEPNNFSRVGGSSLGGGTLWGLLSLITGAQTYDQMLDWAQEGDNSSVDMLVGDIYGTDYNKIGLKSSAIASSFGKVFQNRMTSNKSLENNENKLYSSHESIEKNNGQMFKNPDICKSLLFAISNNIGQIAYLQAKINNIQNIYFGGSYTRGHLTTMNTLSYAINFWSQGSKQAFFLKHEGYLGAMGAFLSASRHSSTKKTST” as the sequence, how does the protein production read?
Its protein production is “failed”.

For “MPRKQLKGETHDQKAQIASAFGEIEQSKIFLDKRSESAAVKMDIADLLKEIIQKQLRKDYDPEVESNIFINPERGDFEVYILKKIVKEVDLPTIEIGLDEVRQIDDSLELGDYYEEGPIKLDDYLTRKSIQIIKQSVQKKVRDLERLAVYEECLEKVGEVVAGEVYQVRPNEVIFTYNTSKDHRVELVLPKSEMMKKDNPRRTPRMKLYVKRIEREKVKVRNDDGTVEEREKPDGGMKVIVSRVDDRFLYKLFESEVPEILDGLIVIKGIARVPGERAKVAVESTSSRIDPVGATVGYRGKRIQSIVKELNNENIDVIYYTDEPQVFIARALQPAKIDPMTVHADMKTRKARVMLKPDQIKYAIGKNGNNIHLAEKLTGYEIDVYRDVIDKSLEDPNDIDIIEFREEFGDDMIYQLLDGGLDTAKKILKGGVEKIEEALLGTQKSEELFVFNKTRKPVKPKERRITDDEKRYWKKIAETIYRTVREQFNDEDLKALLDDSHERSLKGDGIDPEEIRDKETNLEHHHHHH”, which protein production is on record?
The protein production was “failed”.

For “MPRPLSHRNLPMTPQGHCDSRFAPLAEAFARLFDNPQERGAALCLEVGGETVVDLWGGVADKDGEQPWQRDTILNLFSCTKTFTAVAVLQLVAEGKLELDAPVAHYWPEFAAAGKAAISVRQLLCHRAGLPALREQMPPEALYDWQAMTTALAAEEPWWTPGEAHGYAPITYGWLLGEVIRRVDGREPGEAIVARTAAPLGLDFHVGLDDSQFGRVAHMARSKGSLGDAAAQRMLKTMMSEPLALTTRAFTNPPSILTSTNKPEWRRMQQPAANGHGNARALAGFYSGLLQGRLLEDELLGQLAHEHAVGEDRTLLTRTRFGLGTMLDQPGVANATYGLGPKAFGHPGAGGSIGFADPERDLAFSFVSNALGPYVLMDPRAQQLARVAGECL”, which protein production is on record?
Its protein production is “failed”.

Which protein production does the source give for “MPRSCDVVVVNYNAGLLLEDCVISVLAQDINRLVLVDNASHDGSLEQVATRFAADERLLILRNPSNTGFAAACNLGASHCEQPHILFLNPDTVLQPGALQGMIDALRHTHDLGMAGGLLCNFDGSEQPGGRRVFPTPRRAVVRALNLSGLAWLSPRLFSDFLLHREPLPSRPTQVEAISGACMLVKRKALDSVGGWDEGYFLHCEDLDLCMRFRQEGWKVCFVPQARIFHAWGACSRTRPVFVEWHKHRGMIRFYGKFFREDYPRVLSWSICAGVWLRFSFVVGYHWLAQLGRILGQPR” here?
Its protein production is “failed”.

With “MPRSTWFKALLLLVALWAPLSQAETGWQPIQETIRKSDKDNRQYQAIRLDNGMVVLLVSDPQAVKSLSALVVPVGSLEDPEAYQGLAHYLEHMSLMGSKKYPQADSLAEYLKMHGGSHNASTAPYRTAFYLEVENDALPGAVDRLADAIAEPLLDKKYAERERNAVNAELTMARTRDGMRMAQVSAETINPAHPGSKFSGGNLETLSDKPGNPVQQALKDFHEKYYSANLMKAVIYSNKPLPELAKMAADTFGRVPNKESKKPEITVPVVTDAQKGIIIHYVPALPRKVLRVEFRIDNNSAKFRSKTDELITYLIGNRSPGTLSDWLQKQGLVEGISANSDPIVNGNSGVLAISASLTDKGLANRDQVVAAIFSYLNLLREKGIDKQYFDELANVLDIDFRYPSITRDMDYVEWLADTMIRVPVEHTLDAVNIADRYDAKAVKERLAMMTPQNARIWYISPKEPHNKTAYFVDAPYQVDKISAQTFADWQKKAADIALSLPELNPYIPDDFSLIKSEKKYDHPELIVDESNLRVVYAPSRYFASEPKADVSLILRNPKAMDSARNQVMFALNDYLAGLALDQLSNQASVGGISFSTNANNGLMVNANGYTQRLPQLFQALLEGYFSYTATEDQLEQAKSWYNQMMDSAEKGKAFEQAIMPAQMLSQVPYFSRDERRKILPSITLKEVLAYRDALKSGARPEFMVIGNMTEAQATTLARDVQKQLGADGSEWCRNKDVVVDKKQSVIFEKAGNSTDSALAAVFVPTGYDEYTSSAYSSLLGQIVQPWFYNQLRTEEQLGYAVFAFPMSVGRQWGMGFLLQSNDKQPSFLWERYKAFFPTAEAKLRAMKPDEFAQIQQAVITQMLQAPQTLGEEASKLSKDFDRGNMRFDSRDKIVAQIKLLTPQKLADFFHQAVVEPQGMAILSQISGSQNGKAEYVHPEGWKVWENVSALQQTMPLMSEKNE” as the sequence, how does the protein production read?
Its protein production is “not failed”.

With “MPRSTWFKALLLLVALWAPLSQAETGWQPIQETIRKSDKDNRQYQAIRLDNGMVVLLVSDPQAVKSLSALVVPVGSLEDPEAYQGLAHYLEHMSLMGSKKYPQADSLAEYLKMHGGSHNASXAPYRTAFYLEVENDALPGAVDRLADAIAEPLLDKKYAERERNAVNAELTMARTRDGMRMAQVSAETINPAHPGSKFSGGNLETLSDKPGNPVQQALKDFHEKYYSANLMKAVIYSNKPLPELAKMAADTFGRVPNKESKKPEITVPVVTDAQKGIIIHYVPALPRKVLRVEFRIDNNSAKFRSKTDELITYLIGNRSPGTLSDWLQKQGLVEGISANSDPIVNGNSGVLAISASLTDKGLANRDQVVAAIFSYLNLLREKGIDKQYFDELANVLDIDFRYPSITRDMDYVEWLADTMIRVPVEHTLDAVNIADRYDAKAVKERLAMMTPQNARIWYISPKEPHNKTAYFVDAPYQVDKISEQTFADWQQKAANIALSLPELNPYIPDDFSLIKSEKKYDHPELIVDESNLRVVYAPSRYFSSEPKADVSLILRNPKAMDSARNQVMFALNDYLAGLALDQLSNQASVGGISFSTNANNGLMVNANGYTQRLPQLFQALLEGYFSYTATEDQLEQAKSWYNQMMDSAEKGKAFEQAIMPAQMLSQVPYFSRDERRKILPSITLKEVLAYRDALKSGARPEFMVIGNMTEAQATTLARDVQKQLGADGSEWCRNKDVVVDKKQSVIFEKAGNSTDSALAAVFVPTGYDEYTSSAYSSLLGQIVQPWFYNQLRTEEQLGYAVFAFPMSVGRQWGMGFLLQSNDKQPSFLWERYKAFFPTAEAKLRAMKPDEFAQIQQAVITQMLQAPQTLGEEALKLSKDFDRGNMRFDSRDKIVAQIKLLTPQKLADFFHQAVVEPQGMAILSQISGSQNGKAEYVHPEGWKVWENVSALQQTMPLMSEKNE” as the sequence, how does the protein production read?
Its protein production is “failed”.

With “MPSDSQNNKRIAQNTLLLYFRMLFLMLVSLYTSRVNLNALGIEDFGIYNVVGGLVAMFSIISGSLVSSISRFITFELGTENKEKLKKVFSTAVSIQFFLVIIVVILAETIGLWFLNNKMVIPEERILAANIIYQFSIISFALSLMSIPYTGTIVAHEKMSAFAYISIFDVIGKLAVALTISIAPIDKLIWFAGFIVFNSTIIQSIYIFYCKRHFEECTYHFIFDKSLLKNMFGFAGWNFIGSIAAILRDQGGNIVINMFCGPAVNAARGVAMQVNNAVSGFVSNFQTALNPQITKSYASGNYDYMMQLIFQGARLSYYILLILALPIISNTHFILQLWLGQVPKHTVLFVQLVLFFTMSESLANPLINAMLATGKIKKFQIIVGGLNLVNLPLSYICLRLGCIPESVVIIAIIISMICEMARVIMLRNMIHFPARSFLKKVYFNVIFVTITASILPLYLHFILEENIYTFTLISVVSFSCTLLSILYIGCSSEERVMVFSKVKVIVNKVSKRYK” as the sequence, how does the protein production read?
The protein production was “failed”.

For “MPSEAKYTWDQELNEINIQFPVTGDADSSAIKIRIVGKKICVKNQGEIVIDGELLHEVDVSSLWWVINGDVVDVNVTKKRNEWWDSLLVGSESVDVQKLAENKHADMSMLDAEAREVVEKMMHNTSGKDSE”, which protein production is on record?
Its protein production is “not failed”.

Which protein production does the source give for “MPSLTPRCIIVRHGQTEWSKSGQYTGLTDLPLTPYGEGQMLRTGESVFRNNQFLNPDNITYIFTSPRLRARQTVDLVLKPLSDEQRAKIRVVVDDDLREWEYGDYEGMLTREIIELRKSRGLDKERPWNIWRDGCENGETTQQIGLRLSRAIARIQNLHRKHQSEGRASDIMVFAHGHALRYFAAIWFGLGVQKKCETIEEIQNVKSYDDDTVPYVKLESYRHLVDNPCFLLDAGGIGVLSYAHHNIDEPALELAGPFVSPPEEESQHGDV” here?
Its protein production is “not failed”.

For “MPSQSFNAFCPDWATALLNGFSQIFLQRHPLCGLLCLLAILVSAPALLGAALLGALAGLLTAQRRWYAKADRQAGLFSYNGVLLGLLLGLYLPWSVLLPPLIIAAGGLSAIITQQWLKRARNPASLPAYTAPFVGLGWLLLSLIEPLPAATQGVPGLSLANLLGGLFQGLGQIMFLGQPLAGLLILLGLLLASRRAAAWALFGSACGLLFALLLQEHAQALQGLGGYNCALVALALGQQARHPWRPLLGMLLALLISPGLVALGLAPLTAPFVLACWLVHTVDRVLGRNVRGDAPCAPPANPPRLR”, which protein production is on record?
Its protein production is “failed”.

For “MPSSRRVRSRCCAFGITKRFACIRPACQRARMDAQMTNFETRLRENAAKTEALLGHLLSGEARADEITRPQNLLEAMRHGVLNGGKRLRPFLVIESVALLGGDAEAGLHVGAALECLHCYSLVHDDLPAMDDDDLRRGQPTVHRKFDEATAILAGDSLLTLAFDIIASDDNPLAAERKAALVISLARAAGIGGMAGGQALDLAAEKKAPDEDGIITLQAMKTGALLRFACEAGAIIAGSNQAERQRLRLFGEKIGLSFQLADDLLDLTADAATMGKATGKDAARGKGTLVALRGEAWAREKLQE”, which protein production is on record?
Its protein production is “not failed”.
